In data set [1] the target is MacMCM D311K (minus-SB mutant). In words: analytical size-exclusion chromatography (SEC), self-association. Particulars: Protein samples (10 μM); Superdex S200 Increase 10/300 GL; UV absorbance at 280 nm; parent: est. 13.1; read off a plot.
Data set [2] deals with MacMCM KRED (plus-SB mutant K476R–E537D). The description is as above. As to conditions: Protein samples (10 μM); Superdex S200 Increase 10/300 GL; UV absorbance at 280 nm; parent: est. 13.1; read off a plot.
Data set [3] has as its target SsoNPfuCMCM, chimeric MCM of the N-terminal domain of SsoMCM fused with the ATPase domain of PfuMCM (Sulfolobus solfataricus | not stated) (UniProt Q9UXG1). In words: SEC-MALS; SEC-MALLS, Superose S6 Increase 10/300 GL, 200 mM KCl, 50 mM Tris-Cl pH 8.0, 5% glycerol, 0.5 mM DTT; 100 ul protein at 1 to 10 mg/ml; no ligands.
In data set [4] the target is MacMCM NDSK (plus-SB mutant N484D–S532K). The data set can be described thus: analytical size-exclusion chromatography (SEC), self-association. Particulars: Protein samples (10 μM); Superdex S200 Increase 10/300 GL; UV absorbance at 280 nm; parent: est. 13.1; read off a plot. In general terms: SEC sorts molecules by how far they enter the pores of the column.
Data set [5] concerns the target MacMCM DNEK (plus-SB mutant D59N–E61K). The data set is described as above. Particulars: Protein samples (10 μM); Superdex S200 Increase 10/300 GL; UV absorbance at 280 nm; parent: est. 13.1; read off a plot.
Data set [6] concerns the target MacMCM, minichromosome maintenance protein from Mancarchaeum acidiphilum (Mancarchaeum acidiphilum). The data set can be described thus: SEC; analytical SEC, Superose 6 Increase 10/300 GL, 200 mM NaCl, 20 mM Tris pH 8.0, 5% glycerol; protein 10 uM with equimolar fluorescein-polyT50 ssDNA; 1 mM ATP and 10 mM MgCl2 in the buffer.
Data set [7] concerns the target MacMCM D366K (minus-SB mutant). The data set can be described thus: analytical size-exclusion chromatography (SEC), self-association. Particulars: Protein samples (10 μM); Superdex S200 Increase 10/300 GL; UV absorbance at 280 nm; parent: est. 13.1; read off a plot.
The target in data set [8] is T1, MacMCM^ΔWHD (Candidatus Mancarchaeum acidiphilum, UniProt A0A218NN99, E391Q, form not given).
T1 construct: gene Mia14_0611
The data set can be described thus: X-ray crystal structure, […] Å. In kind it is binding. As to conditions: crystals grown with 10 mM ATP and 10 mM MgCl2; nucleotide modelled as ADP; ATPase site at subunit interface, five of six sites.

For data set [9], the target named is MacMCM^E391Q, Walker B mutant of MacMCM (Mancarchaeum acidiphilum). In words: SEC; analytical SEC, Superose 6 Increase 10/300 GL, 200 mM NaCl, 20 mM Tris pH 8.0, 5% glycerol; protein 10 uM with equimolar fluorescein-polyT50 ssDNA; 1 mM ATP and 10 mM MgCl2 in the buffer.
The target in data set [10] is MacMCM triple site minus-SB mutant (D311K, D366K, R543E). In words: analytical size-exclusion chromatography (SEC), self-association. Particulars: Protein samples (10 μM); Superdex S200 Increase 10/300 GL; UV absorbance at 280 nm; parent: est. 13.1; read off a plot.
A further data set has as its target T2, MacMCM (Candidatus Mancarchaeum acidiphilum, UniProt A0A218NN99, E391Q).
T2 construct: gene Mia14_0611; full length, codon-optimised gene, N-terminal His10 tag cut with TEV protease, from E. coli BL21(DE3) pLysS; monomer without ligands, homohexamer with ATP and DNA
In words: analytical SEC: ATP-dependent hexamer formation with ssDNA. As to conditions: 1 mM ATP, 10 mM MgCl2, FAM-polyT50 ssDNA, pH 8.0; Walker B mutant, no ATP hydrolysis. Format: binding.

Data set [11] addresses T1, MacMCM^ΔWHD. The description is as above. Format: binding. As to conditions: 1 mM ATP, 10 mM MgCl2, FAM-polyT50 ssDNA, pH 8.0; Walker B mutant, no ATP hydrolysis.
In data set [12] the test system is MacMCMΔWHD E391Q (Mancarchaeum acidophilum), PDB:8Q67_1. In words: fluorescence anisotropy. Particulars: Anisotropy: 250 mM potassium glutamate, 20 mM Tris pH 8.0, 1 nM forked DNA, with 4 mM nucleotide and 10 mM MgCl2 where present; temperature not stated (EMSA …). On the technique in general: Polarisation of emitted light reports the rotation of a fluorescent probe.

Data set [13] deals with MacMCM E391Q (Mancarchaeum acidophilum). In words: fluorescence anisotropy. Particulars: Anisotropy: 250 mM potassium glutamate, 20 mM Tris pH 8.0, 1 nM forked DNA, with 4 mM nucleotide and 10 mM MgCl2 where present; temperature not stated (EMSA …).
Data set [14] addresses MacMCM^ΔWHD.E391Q, MacMCM lacking the C-terminal winged-helix domain with the Walker B mutation E391Q (Mancarchaeum acidiphilum). The data set can be described thus: SEC; analytical SEC, Superose 6 Increase 10/300 GL, 200 mM NaCl, 20 mM Tris pH 8.0, 5% glycerol; protein 10 uM with equimolar fluorescein-polyT50 ssDNA; 1 mM ATP and 10 mM MgCl2 in the buffer.
For data set [15] the target is unchanged. The data set can be described thus: crystal structure; MacMCM^ΔWHD.E391Q crystallised with 10 mM ATP and 10 mM MgCl2, 20 °C; ADP and phosphate in the active sites; 2.59 Å.
Data set [16] deals with MacMCM R543E (minus-SB mutant). In words: analytical size-exclusion chromatography (SEC), self-association. Particulars: Protein samples (10 μM); Superdex S200 Increase 10/300 GL; UV absorbance at 280 nm; parent: est. 13.1; read off a plot.
Data set [17] has as its target T3, MacMCM triple-site plus-SB mutant (D59N–E61K, K476R–E537D, N484D–S532K).
T3 chain: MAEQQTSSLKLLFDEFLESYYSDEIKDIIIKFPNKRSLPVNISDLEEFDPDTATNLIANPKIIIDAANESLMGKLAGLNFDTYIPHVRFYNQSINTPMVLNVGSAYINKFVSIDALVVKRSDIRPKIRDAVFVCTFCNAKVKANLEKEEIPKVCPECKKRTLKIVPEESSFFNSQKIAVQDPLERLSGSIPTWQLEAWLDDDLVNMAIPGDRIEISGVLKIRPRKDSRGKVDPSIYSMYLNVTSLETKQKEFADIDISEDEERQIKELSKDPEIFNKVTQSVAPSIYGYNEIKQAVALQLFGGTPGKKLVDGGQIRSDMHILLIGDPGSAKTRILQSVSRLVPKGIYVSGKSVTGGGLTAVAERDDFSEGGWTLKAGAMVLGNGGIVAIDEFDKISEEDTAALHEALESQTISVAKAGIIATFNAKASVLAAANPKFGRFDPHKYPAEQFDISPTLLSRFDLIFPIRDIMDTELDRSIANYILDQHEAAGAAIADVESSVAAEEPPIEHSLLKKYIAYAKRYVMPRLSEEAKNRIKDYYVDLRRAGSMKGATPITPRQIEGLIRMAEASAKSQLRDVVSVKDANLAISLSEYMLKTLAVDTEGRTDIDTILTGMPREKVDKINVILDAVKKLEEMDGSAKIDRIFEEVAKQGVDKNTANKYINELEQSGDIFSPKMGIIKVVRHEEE
Described as above. As to conditions: chain shown with the change; Protein samples (10 μM); Superdex S200 Increase 10/300 GL; UV absorbance at 280 nm; parent: est. 13.1; read off a plot.

In general, stoichiometry N refers to the number of molecules, sites or subunits per partner or assembly. As a reminder, the Kd is the free concentration of one partner at which half of the binding sites on the other are occupied at equilibrium, for simple one-to-one binding.

T1 sequence (A0A218NN99 entry or part of it E391Q, form open): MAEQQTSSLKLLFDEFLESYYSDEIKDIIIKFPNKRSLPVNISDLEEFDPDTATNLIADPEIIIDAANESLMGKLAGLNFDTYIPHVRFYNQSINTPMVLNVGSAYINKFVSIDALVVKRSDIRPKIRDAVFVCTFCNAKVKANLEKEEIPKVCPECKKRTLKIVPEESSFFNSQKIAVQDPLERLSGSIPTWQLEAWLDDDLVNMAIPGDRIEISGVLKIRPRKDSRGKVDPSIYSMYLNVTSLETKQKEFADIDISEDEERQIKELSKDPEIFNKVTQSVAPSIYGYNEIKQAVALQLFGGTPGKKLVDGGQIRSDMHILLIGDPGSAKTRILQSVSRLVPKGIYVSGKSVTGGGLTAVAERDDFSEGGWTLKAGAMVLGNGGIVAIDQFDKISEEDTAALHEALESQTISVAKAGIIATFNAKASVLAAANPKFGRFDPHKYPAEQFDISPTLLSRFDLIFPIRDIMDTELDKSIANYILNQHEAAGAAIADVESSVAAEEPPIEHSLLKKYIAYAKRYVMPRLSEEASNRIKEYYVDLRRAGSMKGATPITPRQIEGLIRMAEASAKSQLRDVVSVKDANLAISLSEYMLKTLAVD
T2 sequence (A0A218NN99 entry or part of it E391Q): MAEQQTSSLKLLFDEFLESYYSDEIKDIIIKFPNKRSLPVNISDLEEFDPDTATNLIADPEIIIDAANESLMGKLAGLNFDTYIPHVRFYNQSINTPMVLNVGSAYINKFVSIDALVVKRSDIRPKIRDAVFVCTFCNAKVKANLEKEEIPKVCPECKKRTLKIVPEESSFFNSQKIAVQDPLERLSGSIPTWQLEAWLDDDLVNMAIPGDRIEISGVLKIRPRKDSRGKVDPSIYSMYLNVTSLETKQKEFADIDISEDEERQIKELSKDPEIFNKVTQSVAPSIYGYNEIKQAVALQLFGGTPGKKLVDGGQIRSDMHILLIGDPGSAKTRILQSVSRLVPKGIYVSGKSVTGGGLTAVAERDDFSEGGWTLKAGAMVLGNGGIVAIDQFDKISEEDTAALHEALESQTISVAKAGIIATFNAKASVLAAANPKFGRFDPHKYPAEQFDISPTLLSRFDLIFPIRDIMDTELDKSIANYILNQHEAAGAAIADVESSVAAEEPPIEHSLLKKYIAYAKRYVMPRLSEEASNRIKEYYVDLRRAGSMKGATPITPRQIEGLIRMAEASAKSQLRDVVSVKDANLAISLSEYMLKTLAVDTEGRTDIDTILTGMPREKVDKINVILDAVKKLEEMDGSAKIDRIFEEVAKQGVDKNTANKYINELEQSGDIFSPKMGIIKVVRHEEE

Regarding “MacMCM, minichromosome maintenance protein from Mancarchaeum acidiphilum D311K”, the other: SEC peak retention volume in data set [1] was determined as 13.4 mL.
On to “MacMCM, minichromosome maintenance protein from Mancarchaeum acidiphilum K476R; E537D”, for which the other: SEC peak retention volume in [2] stood at 13.3 mL.
For “SsoNPfuCMCM, chimeric MCM of the N-terminal domain of SsoMCM fused with the ATPase domain of PfuMCM (from UniProt Q9UXG1 2-321) (enzyme)”, the stoichiometry N in [3] amounted to 6.
Consider “MacMCM, minichromosome maintenance protein from Mancarchaeum acidiphilum N484D; S532K”, for which the other: SEC peak retention volume in [4] stood at 13 mL.
In the case of “MacMCM, minichromosome maintenance protein from Mancarchaeum acidiphilum D59N; E61K”, the other: SEC peak retention volume in data set [5] was determined as 12.9 mL.
In the case of “MacMCM, minichromosome maintenance protein from Mancarchaeum acidiphilum (enzyme)”, the stoichiometry N in data set [6] worked out at 6.
Turning to “MacMCM, minichromosome maintenance protein from Mancarchaeum acidiphilum D366K”, the other: SEC peak retention volume in data set [7] came out at 13.4 mL.
`Nc1ncnc2c1ncn2[C@@H]1O[C@H](COP(=O)(O)OP(=O)(O)O)[C@@H](O)[C@H]1O` [ADP]: the “X-ray crystal structure, 2.6 Å” value on MacMCM^ΔWHD [8] is “ADP was identified in five of the six ATPase active sites”.
In data set [9], “MacMCM^E391Q, Walker B mutant of MacMCM (enzyme)” yielded a stoichiometry N of 6.
In the case of “MacMCM, minichromosome maintenance protein from Mancarchaeum acidiphilum D311K; D366K; R543E”, in data set [10], the other: SEC peak retention volume worked out at 13.3 mL.
For the molecule `Nc1ncnc2c1ncn2[C@@H]1O[C@H](COP(=O)(O)OP(=O)(O)OP(=O)(O)O)[C@@H](O)[C@H]1O` [ATP], the “analytical SEC: ATP-dependent hexamer formation with ssDNA” value at MacMCM was “both MacMCM^E391Q and MacMCM^ΔWHD.E391Q coeluted with ssDNA at elution volumes consistent with a homohexamer”; at MacMCM^ΔWHD [11], “both MacMCM^E391Q and MacMCM^ΔWHD.E391Q coeluted with ssDNA at elution volumes consistent with a homohexamer”.
“GGGACGCGTCGGCCTGGCACGTCGGCCGCTGCGGCCAGGCACCCGATGGCGTTTGTTTGTTTGTTTGTTTGTTT / TTTGTTTGTTTGTTTGTTTGTTTGTTTGTTTGCCGACGTGCCAGGCCGACGCGTCCC [forked DNA]”: the Kd in [12] came out at 114 nM; in data set [13], 780 nM.
With “MacMCM^ΔWHD.E391Q, MacMCM lacking the C-terminal winged-helix domain with the Walker B mutation E391Q (domain or fragment)”, the stoichiometry N in [14] and in data set [15] was 6 throughout.
“MacMCM, minichromosome maintenance protein from Mancarchaeum acidiphilum R543E”: in [16], the other: SEC peak retention volume amounted to 13.3 mL.

B1: MacMCM, minichromosome maintenance protein from Mancarchaeum acidiphilum D59N; E61K; K476R; E537D; N484D; S532K (protein)
chain: T3 chain
Consider B1, for which the other: SEC peak retention volume in data set [17] came to 11.6 mL.

(Values after publication PMC13049513, “Assembly of a homohexameric minichromosome maintenance complex is dependent on ATP and DNA” (The Journal of Biological Chemistry, 2025).)
